Data on three substances can be found in patent US20150064134A1.

Some targets named below: CaMKIIδ(h) (human) (UniProt Q13557); Hck(h) activated (human) (UniProt P08631); Mnk2(h) (human) (UniProt Q9HBH9); GSK3α(h) (human) (UniProt P49840); Met(D1246H)(h) (human) (UniProt P08581); HIPK2(h) (human) (UniProt Q9H2X6); MRCKβ(h) (human) (UniProt Q9Y5S2); VRK2(h) (human) (UniProt Q86Y07); PAK2(h) (human) (UniProt Q13177); CDK5/p35(h) (human) (UniProt Q00535); mTOR(h) (human) (UniProt P42345); BTK(R28H)(h) (human) (UniProt Q06187); GRK6(h) (human) (UniProt P43250); PRAK(h) (human) (UniProt Q8IW41); PKBβ(h) (human) (UniProt P31751).

Common to all, as to assay: cell-based or functional assay
Another experiment addresses T1, Ret(h) (human) (UniProt P07949).
T1 sequence (looked up): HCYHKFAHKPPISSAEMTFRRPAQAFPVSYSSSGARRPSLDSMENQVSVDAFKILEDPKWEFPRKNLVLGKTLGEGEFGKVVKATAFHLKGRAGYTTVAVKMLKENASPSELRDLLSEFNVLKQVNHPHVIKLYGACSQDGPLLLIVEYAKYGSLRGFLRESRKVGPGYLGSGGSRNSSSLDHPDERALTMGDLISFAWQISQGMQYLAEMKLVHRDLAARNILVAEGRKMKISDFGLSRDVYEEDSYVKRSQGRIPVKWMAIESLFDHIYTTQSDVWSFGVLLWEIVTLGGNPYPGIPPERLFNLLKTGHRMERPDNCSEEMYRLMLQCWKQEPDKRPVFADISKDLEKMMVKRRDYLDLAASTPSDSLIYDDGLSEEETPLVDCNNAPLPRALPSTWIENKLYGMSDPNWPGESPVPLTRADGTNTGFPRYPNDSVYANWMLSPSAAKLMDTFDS

The next experiment concerns the target T2, eEF-2K(h) (human) (UniProt O00418).
T2 sequence (looked up): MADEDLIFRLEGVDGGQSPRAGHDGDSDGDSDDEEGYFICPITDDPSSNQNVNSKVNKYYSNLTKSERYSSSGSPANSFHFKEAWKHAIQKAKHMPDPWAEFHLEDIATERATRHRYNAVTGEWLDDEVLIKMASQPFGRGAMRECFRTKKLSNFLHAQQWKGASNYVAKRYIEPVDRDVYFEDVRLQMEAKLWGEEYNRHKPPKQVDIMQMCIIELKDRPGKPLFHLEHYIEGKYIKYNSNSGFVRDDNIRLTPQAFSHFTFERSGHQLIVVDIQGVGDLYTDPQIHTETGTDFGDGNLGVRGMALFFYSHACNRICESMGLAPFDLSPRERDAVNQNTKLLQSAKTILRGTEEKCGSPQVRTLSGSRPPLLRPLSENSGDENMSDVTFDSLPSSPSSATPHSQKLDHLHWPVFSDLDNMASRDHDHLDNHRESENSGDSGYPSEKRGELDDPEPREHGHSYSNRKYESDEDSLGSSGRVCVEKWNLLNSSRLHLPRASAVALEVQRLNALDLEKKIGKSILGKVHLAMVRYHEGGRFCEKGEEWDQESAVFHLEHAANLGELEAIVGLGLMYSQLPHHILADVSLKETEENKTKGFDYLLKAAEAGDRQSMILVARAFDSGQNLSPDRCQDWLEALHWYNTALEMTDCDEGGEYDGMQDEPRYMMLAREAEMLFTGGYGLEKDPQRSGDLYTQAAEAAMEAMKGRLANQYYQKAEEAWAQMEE

The target of the next experiment is T3, IKKβ(h) (human) (UniProt O14920).
T3 sequence (looked up): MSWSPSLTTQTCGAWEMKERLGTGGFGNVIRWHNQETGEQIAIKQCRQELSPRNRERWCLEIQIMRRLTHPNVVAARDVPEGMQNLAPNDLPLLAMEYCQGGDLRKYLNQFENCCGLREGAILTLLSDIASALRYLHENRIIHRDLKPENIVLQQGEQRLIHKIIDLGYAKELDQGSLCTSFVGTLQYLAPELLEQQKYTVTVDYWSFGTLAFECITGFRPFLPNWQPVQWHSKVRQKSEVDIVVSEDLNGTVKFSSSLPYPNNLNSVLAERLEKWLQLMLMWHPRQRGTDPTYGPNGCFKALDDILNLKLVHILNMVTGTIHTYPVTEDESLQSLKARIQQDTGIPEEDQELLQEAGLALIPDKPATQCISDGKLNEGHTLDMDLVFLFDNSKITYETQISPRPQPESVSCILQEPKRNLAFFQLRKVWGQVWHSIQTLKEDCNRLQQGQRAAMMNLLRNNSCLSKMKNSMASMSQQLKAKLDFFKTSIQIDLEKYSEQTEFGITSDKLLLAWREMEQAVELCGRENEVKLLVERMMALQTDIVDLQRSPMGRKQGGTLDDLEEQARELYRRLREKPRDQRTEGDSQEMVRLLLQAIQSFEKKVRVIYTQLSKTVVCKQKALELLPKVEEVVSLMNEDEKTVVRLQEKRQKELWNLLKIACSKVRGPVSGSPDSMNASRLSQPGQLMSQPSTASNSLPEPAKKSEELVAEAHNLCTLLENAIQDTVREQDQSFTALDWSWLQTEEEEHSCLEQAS

Sequence of PKBβ(h) (human) (P31751 whole entry): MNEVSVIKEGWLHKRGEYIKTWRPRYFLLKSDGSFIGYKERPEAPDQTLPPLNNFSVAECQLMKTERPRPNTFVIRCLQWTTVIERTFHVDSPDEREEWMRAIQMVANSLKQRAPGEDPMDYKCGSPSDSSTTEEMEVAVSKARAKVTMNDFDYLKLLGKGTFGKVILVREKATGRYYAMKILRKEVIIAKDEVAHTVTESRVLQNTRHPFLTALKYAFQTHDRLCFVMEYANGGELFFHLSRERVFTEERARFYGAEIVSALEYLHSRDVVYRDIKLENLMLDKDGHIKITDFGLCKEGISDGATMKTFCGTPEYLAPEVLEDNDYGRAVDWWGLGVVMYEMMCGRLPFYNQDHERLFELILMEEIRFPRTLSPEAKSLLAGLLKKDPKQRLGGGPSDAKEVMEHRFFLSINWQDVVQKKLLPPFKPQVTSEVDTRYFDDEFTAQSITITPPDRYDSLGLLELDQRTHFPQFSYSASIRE
Sequence of PRAK(h) (human) (Q8IW41 whole entry): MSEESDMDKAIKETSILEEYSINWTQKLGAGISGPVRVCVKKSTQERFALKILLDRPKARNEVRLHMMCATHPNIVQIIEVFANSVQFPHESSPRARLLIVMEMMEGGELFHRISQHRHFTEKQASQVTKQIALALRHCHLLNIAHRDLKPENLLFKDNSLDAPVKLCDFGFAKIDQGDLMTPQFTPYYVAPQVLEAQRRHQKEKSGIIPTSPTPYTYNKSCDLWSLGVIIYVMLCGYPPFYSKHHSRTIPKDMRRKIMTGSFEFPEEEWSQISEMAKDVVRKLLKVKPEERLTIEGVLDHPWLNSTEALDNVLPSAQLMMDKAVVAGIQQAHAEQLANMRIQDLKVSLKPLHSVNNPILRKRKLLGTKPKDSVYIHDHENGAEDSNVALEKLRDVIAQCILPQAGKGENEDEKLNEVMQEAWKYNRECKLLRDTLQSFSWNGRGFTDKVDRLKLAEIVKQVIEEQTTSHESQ
Sequence of VRK2(h) (human) (Q86Y07 whole entry): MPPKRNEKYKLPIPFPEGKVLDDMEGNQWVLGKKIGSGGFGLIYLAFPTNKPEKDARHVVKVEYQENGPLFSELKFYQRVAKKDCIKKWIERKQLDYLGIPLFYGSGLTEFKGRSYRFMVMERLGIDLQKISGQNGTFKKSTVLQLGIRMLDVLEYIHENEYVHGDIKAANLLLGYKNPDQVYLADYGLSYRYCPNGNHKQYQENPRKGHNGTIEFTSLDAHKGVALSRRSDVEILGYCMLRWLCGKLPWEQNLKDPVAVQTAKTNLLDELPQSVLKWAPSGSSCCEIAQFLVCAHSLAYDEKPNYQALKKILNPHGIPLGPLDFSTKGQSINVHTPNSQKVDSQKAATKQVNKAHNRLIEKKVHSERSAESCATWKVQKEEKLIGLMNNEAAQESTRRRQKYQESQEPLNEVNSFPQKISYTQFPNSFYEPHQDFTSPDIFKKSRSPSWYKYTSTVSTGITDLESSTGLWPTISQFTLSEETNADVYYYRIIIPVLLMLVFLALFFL
Sequence of mTOR(h) (human) (P42345 1362-2549 limits assumed): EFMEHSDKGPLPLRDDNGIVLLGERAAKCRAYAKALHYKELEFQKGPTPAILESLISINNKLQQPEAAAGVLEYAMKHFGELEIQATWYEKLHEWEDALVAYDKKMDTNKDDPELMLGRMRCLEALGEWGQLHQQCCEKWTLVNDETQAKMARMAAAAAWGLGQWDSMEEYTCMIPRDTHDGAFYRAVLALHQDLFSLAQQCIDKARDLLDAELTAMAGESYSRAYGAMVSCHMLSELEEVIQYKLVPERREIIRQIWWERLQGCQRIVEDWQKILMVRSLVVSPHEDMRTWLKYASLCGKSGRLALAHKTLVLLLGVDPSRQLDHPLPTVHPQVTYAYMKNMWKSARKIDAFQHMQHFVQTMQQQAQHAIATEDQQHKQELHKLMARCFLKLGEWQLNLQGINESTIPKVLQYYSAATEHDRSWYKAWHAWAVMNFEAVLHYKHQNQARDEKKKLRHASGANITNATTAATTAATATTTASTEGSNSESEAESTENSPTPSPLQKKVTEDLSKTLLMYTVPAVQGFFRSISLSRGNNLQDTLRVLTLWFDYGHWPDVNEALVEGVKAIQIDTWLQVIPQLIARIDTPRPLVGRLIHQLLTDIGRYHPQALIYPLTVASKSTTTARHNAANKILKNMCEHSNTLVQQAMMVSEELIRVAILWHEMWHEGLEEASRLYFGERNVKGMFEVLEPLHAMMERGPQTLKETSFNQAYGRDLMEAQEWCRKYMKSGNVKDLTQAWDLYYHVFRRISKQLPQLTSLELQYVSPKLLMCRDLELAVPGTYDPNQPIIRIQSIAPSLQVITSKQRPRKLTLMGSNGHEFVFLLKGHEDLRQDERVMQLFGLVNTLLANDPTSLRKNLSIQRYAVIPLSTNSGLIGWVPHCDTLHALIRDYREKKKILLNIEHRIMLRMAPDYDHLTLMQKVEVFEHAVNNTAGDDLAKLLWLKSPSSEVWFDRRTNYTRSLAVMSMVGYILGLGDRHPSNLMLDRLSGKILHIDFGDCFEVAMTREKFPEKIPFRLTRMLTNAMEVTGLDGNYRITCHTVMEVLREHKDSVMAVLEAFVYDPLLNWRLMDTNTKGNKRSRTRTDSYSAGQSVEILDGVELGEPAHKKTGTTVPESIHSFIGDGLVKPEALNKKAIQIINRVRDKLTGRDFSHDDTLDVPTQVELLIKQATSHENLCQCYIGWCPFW
Sequence of PAK2(h) (human) (Q13177 whole entry): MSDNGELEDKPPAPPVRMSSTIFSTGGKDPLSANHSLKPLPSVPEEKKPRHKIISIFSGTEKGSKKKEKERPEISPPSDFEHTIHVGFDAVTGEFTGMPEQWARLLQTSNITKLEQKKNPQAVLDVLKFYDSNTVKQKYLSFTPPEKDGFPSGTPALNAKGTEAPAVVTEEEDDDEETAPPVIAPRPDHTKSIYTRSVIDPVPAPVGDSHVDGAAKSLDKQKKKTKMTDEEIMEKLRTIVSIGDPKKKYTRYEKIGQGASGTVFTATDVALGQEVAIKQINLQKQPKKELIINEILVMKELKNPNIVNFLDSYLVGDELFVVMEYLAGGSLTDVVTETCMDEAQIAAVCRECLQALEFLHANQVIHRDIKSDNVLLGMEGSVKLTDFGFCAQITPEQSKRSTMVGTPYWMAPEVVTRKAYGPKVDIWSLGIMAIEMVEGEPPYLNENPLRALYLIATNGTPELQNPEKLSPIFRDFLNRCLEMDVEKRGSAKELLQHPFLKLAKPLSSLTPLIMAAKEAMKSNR
Sequence of MRCKβ(h) (human) (Q9Y5S2 1-473 limits assumed): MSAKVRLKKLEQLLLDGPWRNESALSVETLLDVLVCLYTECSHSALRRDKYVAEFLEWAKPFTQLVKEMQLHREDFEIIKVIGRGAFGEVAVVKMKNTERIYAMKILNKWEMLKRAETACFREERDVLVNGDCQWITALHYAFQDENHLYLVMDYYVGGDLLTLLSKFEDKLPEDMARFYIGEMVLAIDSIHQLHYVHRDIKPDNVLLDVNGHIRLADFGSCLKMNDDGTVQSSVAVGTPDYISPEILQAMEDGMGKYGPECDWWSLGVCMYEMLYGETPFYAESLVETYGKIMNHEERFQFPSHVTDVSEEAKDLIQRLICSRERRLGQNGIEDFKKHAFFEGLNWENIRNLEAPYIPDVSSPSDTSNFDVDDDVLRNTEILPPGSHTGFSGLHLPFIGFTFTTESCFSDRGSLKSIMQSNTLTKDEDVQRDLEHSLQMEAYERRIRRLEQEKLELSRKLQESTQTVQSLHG

For the substance MMI-0300 (peptide), the % activity at 100 µM was 140% with Ret(h) (human); 1% with CaMKIIδ(h) (human); 82% with Hck(h) activated (human); 91% with eEF-2K(h) (human); 89% in the experiment with Mnk2(h) (human); 157% with GSK3α(h) (human). The % activity at 100 µM came out at 125% with Met(D1246H)(h) (human); 73% in the experiment with HIPK2(h) (human); 83% in the experiment with MRCKβ(h) (human); 161% with VRK2(h) (human); 65% with PAK2(h) (human); 79% with CDK5/p35(h) (human). Also, the % activity at 100 µM turned out to be 91% in the experiment with mTOR(h) (human); 84% in the experiment with IKKβ(h) (human); 74% with BTK(R28H)(h) (human); 147% with GRK6(h) (human); 128% in the experiment with PRAK(h) (human); 84% in the experiment with PKBβ(h) (human).

On to MMI-0500 (peptide), for which the % activity at 100 µM with Ret(h) (human) is 174%; with CaMKIIδ(h) (human) it was 1%; with Hck(h) activated (human), 67%; in the experiment with eEF-2K(h) (human) it was 43%; in the experiment with Mnk2(h) (human), 6%; in the experiment with GSK3α(h) (human), 175%. Besides, the % activity at 100 µM was 150% with Met(D1246H)(h) (human); 38% with HIPK2(h) (human); -10% with MRCKβ(h) (human); 169% with VRK2(h) (human); 44% in the experiment with PAK2(h) (human); 59% with CDK5/p35(h) (human). Moreover, the % activity at 100 µM was found to be 135% with mTOR(h) (human); 71% in the experiment with IKKβ(h) (human); 10% in the experiment with BTK(R28H)(h) (human); 174% in the experiment with GRK6(h) (human); 95% with PRAK(h) (human); 21% with PKBβ(h) (human).

On to MMI-0400 (peptide), for which the % activity at 100 µM with Ret(h) (human) is 145%; with CaMKIIδ(h) (human) it was 2%; with Hck(h) activated (human), 81%; with eEF-2K(h) (human), 43%; in the experiment with Mnk2(h) (human) it was 86%; with GSK3α(h) (human) it was 164%. Further, the % activity at 100 µM with Met(D1246H)(h) (human) was determined as 68%; in the experiment with HIPK2(h) (human), 90%; with MRCKβ(h) (human) it was 71%; with VRK2(h) (human), 185%; with PAK2(h) (human), 59%; with CDK5/p35(h) (human), 76%. The % activity at 100 µM is 93% with mTOR(h) (human); 84% in the experiment with IKKβ(h) (human); 24% in the experiment with BTK(R28H)(h) (human); 141% with GRK6(h) (human); 118% in the experiment with PRAK(h) (human); 98% with PKBβ(h) (human).
